The values that follow come from patent US20190309044A1, “POLYPEPTIDES AND USES THEREOF AS A DRUG FOR TREATMENT OF AUTOIMMUNE DISORDERS” (Compugen Ltd., priority 2017, published 2019).

The test system of assay [1] is total splenocytes. Description: Ex vivo recall responses of splenocytes, HY bone marrow transplantation model. The format is in vivo, mouse. As for the experimental part: On week 8 post bone marrow cell transplantion, total splenocytes (5×10^5 cells/well) were cultured in the presence of medium alone (no stimulation), anti-CD3(1 ug/ml), DBY peptide (10 ug/ml), irradiated male splenocytes (5×10^5 cells/well), or irradiated female splenocytes (5×10^5 cells/well). The individual splenocyte samples were cultured separately in triplicate wells. For T cell proliferative response, the cultures were pulsed with 1 uCi of tritiated thymidine at 24 hours and harvested at 72 hours post culture initiation. The statistical analysis carried out on the data is one-way ANOVA followed by Dunnett's post test as compared to the mice receiving male CD45.1+ bone marrow cells plus Control Ig treatment, p-values *<0.05, **<0.01,***<0.001, and #<0.0001.
On week 8 post bone marrow cell transplant, total splenocytes (5×10^5 cells/well) were cultured in the presence of medium alone (no stimulation), anti-CD3 (1 ug/ml), DBY peptide (10 ug/ml), irradiated male splenocytes (5×10^5 cells/well), or irradiated female splenocytes (5×10^5 cells/well). The individual splenocyte samples were cultured separately in triplicate wells. For the cytokine cultures, the supernatants were collected at 72 hours post culture initiation and the level of secreted cytokine was determined via LiquiChip. […]
These same populations of cells were analyzed at week 8 within the spleen. […]

Assay [2] deals with NOD mice. Briefly: Type 1 diabetes incidence in NOD mice. The format is in vivo, mouse. The settings on record: Study III; p<0.001. As for the experimental part:
The effect of C1ORF32 ECD-Fc treatment on modulation of disease incidence was tested in NOD mice, which spontaneously develop a T1D disease. In NOD mice, autoreactive CD4+ can be observed within the β-islets as early as 2 weeks of age (Yang et al., Immunity. 1996 February; 4(2):189-94), and by 10 weeks of age, when the treatment with C1ORF32 ECD-Fc (SEQ ID NO: 42) began in the present experiments, NOD mice develop peri-insulitis and β-cell loss (Jimeno et al., Immunology and Cell Biology. (2010) 88, 734-745).
Materials: C1ORF ECD-Fc (SEQ ID NO:42) was used in these studies, as described below. Control Ig was mouse IgG2a from BioXcell (Cat# BE0085). NOD mice were purchased from Jackson labs, and blood glucose was measured via sampling a small drop of blood from the tail vein.
Methods: Six week old NOD mice were purchased from Jackson labs. […] Blood glucose levels were monitored weekly from 8 weeks of age until the mice reached […] of age as detailed below. Mice were considered diabetic upon having two consecutive blood glucose readings of >250 mg/dL. Diabetic mice were sacrificed on the day of the second high glucose level reading. Blood glucose levels were obtained from the tail vein, and the level of blood glucose measured via use of a OneTouch. […]

B1: C1ORF32 ECD-Fc (SEQ ID NO:42): human-mouse fusion protein: human C1ORF32 ECD fused to mouse immunoglobulin Fc (SEQ ID NO:42) (protein)
chain: LQVTVPDKKKVAMLFQPTVLRCHFSTSSHQPAVVQWKFKSYCQDRMGESLGMSSTRAQSLSKRNLEWDPYLDCLDSRRTVRVVASKQGSTVTLGDFYRGREITIVHDADLQIGKLMWGDSGLYYCIITTPDDLEGKNEDSVELLVLGRTGLLADLLPSFAVEIMGSENLYFQGSGEPRGPTIKPCPPCKCPAPNLLGGPSVFIFPPKIKDVLMISLSPIVTCVVVDVSEDDPDVQISWFVNNVEVHTAQTQTHREDYNSTLRVVSALPIQHQDWMSGKEFKCKVNNKDLPAPIERTISKPKGSVRAPQVYVLPPPEEEMTKKQVTLTCMVTDFMPEDIYVEWTNNGKTELNYKNTEPVLDSDGSYFMYSKLRVEKKNWVERNSYSCSVVHEGLHNHHTTKSFSRTPGK
modifications: Fusion protein human C1ORF32-ECD fused to mouse IgG2a Fc
As to B1, in assay [1] (activation with irradiated male splenocytes), the “IL-10 and IL-4” value is reported as “increased level”. Besides, the “IL-10 and IL-4 secretion” value in assay [1] (week 8 splenocytes, in response to male or female splenocytes) is “significantly increased”. The “incidence of T1D in comparison to Control Ig and PBS” value in assay [2] was “significantly decreased incidence of T1D”.
